From US6524820B1, “Lectins and coding sequences” (University of Georgia Research Foundation, Inc., priority 1997, dated 2003)
Entries after “also recorded” stand apart in the source; their conditions may differ.

Experiments:
[1] = Melibiose affinity chromatography (binding to immobilized melibiose); conditions: in the presence of Ca2+
Method: The rabbit, mouse, Xenopus laevis heart extracts, and various in vitro translation products were applied to a column of immobilized melibiose-agarose to analyze carbohydrate binding specificity. The heart extracts of rabbit, mouse, and Xenopus laevis were prepared by the method as described above and applied to a melibiose affinity column (total volume, 1 ml on Econo column) that was pre-equilibrated with TCS. After washing with 10 ml of TCS containing 0.3 M sucrose, bound protein was eluted with TCS containing 0.1 M EDTA. One ml of each fraction was collected and subjected to western blotting followed by 4-15% SDS-PAGE. Each 30 μl of in vitro translation product was diluted with 2×TCS (1:1) and applied to the melibiose column using same method. After separation of fractions on 4-15% SDS-PAGE, the results were analyzed by autoradiography.

[2] = tested on: trypsinized, glutaraldehyde-fixed rabbit erythrocytes; assay: Erythrocyte agglutination assay; format: cell-based
Method: The assay was performed essentially as described using trypsinized, glutaraldehyde-fixed rabbit erythrocytes [Barondes and Roberson (1987) Methods Enzymol. 138, 516-20] in TCS buffer (10 mM Tris, pH 7.6, 10 mM CaCl2, 150 mM NaCl). To compare the agglutination properties of both the purified and recombinant lectins, the two lectins were assayed under similar conditions. Because the eluted recombinant lectin was in 8 M urea, a solution of purified non-recombinant lectin was also brought to 8 M with a concentrated urea solution. The agglutination assay was performed using […] of either recombinant or native XL35 lectin in […] TCS and 8 M urea was added to wells of a 96-well microtiter plate. Next, […] of TCS alone or TCS containing 0.4 M EDTA or 1.0 M melibiose or 1.0 M sucrose was added to the wells and mixed with the lectin solution. To this solution, 50 ml of a 1:1 suspension of trypsinized, glutaraldehyde-fixed rabbit erythrocytes in TCS was added and the contents of the wells were mixed by trituration. The final concentration of urea in the wells was 2 M, while that of EDTA was 0.10 M and that of melibiose and sucrose were 0.25 M. Agglutination activity was scored after 1.5 hr. at room temperature using an inverted microscope on low power. […]

[3] = Solubility of recombinant lectins in urea; format: physicochemical; conditions: bacterially expressed recombinant lectin
Method: Expression of human HL-3 and HL-13 coding sequences was performed using the same method for expression of XL-35. […] Purification and renaturation carried out as for XL35.

Molecule	binding to immobilized melibiose [1]	agglutination activity retained relative to assay in TCS alone ([2]; after 1.5 hr in TCS plus 2 M urea)	agglutination of trypsinized, fixed rabbit erythrocytes ([2]; in 2 M urea)	concentration of urea required for solution [3] [M]
HL-3: human calcium-dependent lectin family member, homolog of XL35, SEQ ID NO:4 (protein) MNQLSFLLFLIATTRGWSTDEANTYFKEWTCSSSPSLPRSCKEIKDECPSAFDGLYFLRTENGVIYQTFCDMTSGGGGWTLVASVHENDMRGKCTVGDRWSSQQGSKADYPEGDGNWANYNTFGSAEAATSDDYKNPGYYDIQAKDLGIWHVPNKSPMQHWRNSSLLRYRTDTGFLQTLGHNLFGIYQKYPVKYGEGKCWTDNGPVIPVVYDFGDAQKTASYYSPYGQREFTAGFVQFRVFNNERAANALCAGMRVTGCNTEHHCIGGGGYFPEASPQQCGDFSGFDWSGYGTHVGYSSSREITEAAVLLFYR	no in vitro translation products of HL-3 and HL-13 bound; also recorded: do not appear to bind specifically			
HL-13: human homolog of XL35 expressed in small intestine, SEQ ID NO:6 (protein) MLSMLRTMTRLCFLLFFSVATSGCSAAAASSLEMLSREFETCAFSFSSLPRSCKEIKERCHSAGDGLYFLRTKNGVVYQTFCDMTSGGGGWTLVASVHENDMRGKCTVGDRWSSQQGNKADYPEGDGNWANYNTFGSAEAATSDDYKNPGYYDIQAKDLGIWHVPNKSPMQHWRNSALLRYRTNTGFLQRLGHNLFGIYQKYPVKYRSGKCWNDNGPAIPVVYDFGDAKKTASYYSPYGQREFVAGFVQFRVFNNERAANALCAGIKVTGCNTEHHCIGGGGFFPQGKPRQCGDFSAFDWDGYGTHVKSSCSREITEAAVLLFYR	no in vitro translation products of HL-3 and HL-13 bound; also recorded: do not appear to bind specifically			
XL35: soluble, calcium-dependent lectin from Xenopus laevis oocytes, SEQ ID NO:2 (protein) MLVHILLLLVTGGLSQSCDPVVIVASKNMVKQLDCDKFRNCKEIKDSNEEAQDGIYTLTSPDGISYQTFCDMTTNGGGWTLVASVHENNMAGKCTIGDRWSSQQGNRADYPEGDGNWANYNTFGSAGGATSDDYKNPGYYDIEAYNLGVWHVPNKTPLSVWRNSSLQRYRTTDGILFKHGGNLFSLYRIYPVKYGIGSCSKDSGPTVPVVYDLGSANLTASFYSPGFRSQFTPGYIQFRPINTEKAALALCPGMKMESCNVEHVCIGGGGYFPEADPRQCGDFAAYDFNGYGTKKFNSAGIEITEAAVLLFYL		25-50%	active	2
